From PMC12120770, “Unveiling Structural Heterogeneity and Evolutionary Adaptations of Heteromultimeric Bacterioferritin Nanocages” (Advanced Science, 2025)

Experiments:
[1] = target: the molecule itself; assay: cryo-EM structure; single-particle cryo-EM of purified SoBfr12 (1.7 mg mL^-1), subunits co-expressed in E. coli; refined with C1 symmetry, 2.62 Å
[2] = target: the molecule itself; assay: native gel or EMSA; purified PaBfrB on 6% native PAGE, Tris-glycine pH 8.3, 4 °C

Protein | stoichiometry N [1] | binding result [2]
SoBfr1, heme-free subunit of the Shewanella oneidensis hetero-bacterioferritin SoBfr12 (natural protein, SoBfr1, heme-free bacterioferritin subunit of Shewanella oneidensis, amplified from genomic DNA together with SoBfr2; Expressed from one DNA fragment encoding SoBfr2 and SoBfr1 with a Strep-tag II; not shown: Strep-tag II, C-terminal, kept) MKGDKDVIDALNRLLTGELSAMDQYFVHAHMYEDWGLNELYERIAHESDDEKGHAAKLVQRILFLEGVPNVAAREALNIGSNVEEMLRNDLAYEYKVADDLRKVIALCEQKKDYQTREILEVLLDDTESDHMYWLEKQLGLIDRIGLANYLQTKM | 2 | –
SoBfr2, heme-binding subunit of the Shewanella oneidensis hetero-bacterioferritin SoBfr12 (natural protein) MKGHPKVVGQLNRVLTCELTAINQYFLHARMFKHWGLEKLNHVEYKKSIEDMKHADKLIERVLFLEGLPNLQQLEKLRIGEHAQEMLDCDLAMVQEQLTLLRDAITLCEAEQDYVSRDLLEDILEDEEEHLDWLESQRELIGLTGIQNYLQSQISES | 2 | –
PaBfrB, Pseudomonas aeruginosa homo-bacterioferritin subunit (natural protein, also called homo-Bfr) not shown | – | binds
